Measured values from doi:10.1101/629683.

Molecular target: mCh-vinT12-cBAK (constitutively active, opened form of full-length vinculin, mCherry-tagged, with cBAK) (gallus gallus) (UniProt P12003)
Test: Fluorescence Loss After Photoactivation

Sequence of UniProt P12003 (P12003 whole entry): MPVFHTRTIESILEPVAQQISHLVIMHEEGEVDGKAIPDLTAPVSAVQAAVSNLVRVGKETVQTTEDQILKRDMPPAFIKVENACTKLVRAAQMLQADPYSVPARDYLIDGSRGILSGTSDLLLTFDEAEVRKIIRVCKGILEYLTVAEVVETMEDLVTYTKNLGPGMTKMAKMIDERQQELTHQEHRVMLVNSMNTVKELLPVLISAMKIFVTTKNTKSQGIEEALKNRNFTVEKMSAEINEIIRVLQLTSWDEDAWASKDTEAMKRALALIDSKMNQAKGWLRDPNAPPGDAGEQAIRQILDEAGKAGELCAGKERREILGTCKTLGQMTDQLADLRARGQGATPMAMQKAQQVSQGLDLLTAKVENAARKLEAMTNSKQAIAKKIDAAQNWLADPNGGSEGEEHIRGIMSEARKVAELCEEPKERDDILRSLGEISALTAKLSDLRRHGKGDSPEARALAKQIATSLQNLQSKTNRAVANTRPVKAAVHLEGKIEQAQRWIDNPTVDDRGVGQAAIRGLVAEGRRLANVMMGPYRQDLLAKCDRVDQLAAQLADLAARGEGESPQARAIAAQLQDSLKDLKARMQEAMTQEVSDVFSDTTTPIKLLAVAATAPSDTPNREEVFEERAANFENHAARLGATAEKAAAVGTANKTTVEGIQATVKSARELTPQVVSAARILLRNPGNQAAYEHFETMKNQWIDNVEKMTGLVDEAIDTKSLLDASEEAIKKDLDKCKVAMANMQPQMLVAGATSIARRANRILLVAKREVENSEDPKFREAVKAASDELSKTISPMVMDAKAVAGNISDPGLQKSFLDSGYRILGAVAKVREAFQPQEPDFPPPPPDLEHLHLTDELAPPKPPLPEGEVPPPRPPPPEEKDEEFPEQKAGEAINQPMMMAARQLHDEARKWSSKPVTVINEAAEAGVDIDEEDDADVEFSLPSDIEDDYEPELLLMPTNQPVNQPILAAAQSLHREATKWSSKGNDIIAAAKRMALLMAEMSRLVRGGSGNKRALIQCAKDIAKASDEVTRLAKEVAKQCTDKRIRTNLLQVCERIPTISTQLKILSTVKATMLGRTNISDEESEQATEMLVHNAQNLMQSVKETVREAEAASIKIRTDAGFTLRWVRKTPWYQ

mobile fraction (Mf) in FLAP: < 20%
Substance: Photo-Activatable (PA) GFP-TalinFL (from UniProt P26039 1-2541) (natural protein)
